Results from patent US8901081B2, “Uses of GRS proteins or fragments thereof” (SNU R&DB Foundation, priority 2008, dated 2014).

What was measured:
Type in all cases: cell-based
[1] = test system: MAPKs (ERK, p38 MAPK, Jun N-terminal kinase) in HeLa cells; test: Effect on MAPKs (immunoblotting of total and phosphorylated MAPKs)
Experimental: HeLa cells were cultured on a 6-well plate for 12 hours. After washing 2 times, the cells were allowed to stand in serum-starved DMEM for 3 hours. Then, the cells were cultured with GRS protein (150 nM) or TNF-α (15 ng/mL) for 10, 30, 60, 90 or 120 minutes, and then washed 2 times with cold phosphate buffer. The protein was extracted with 25 mM Tris-HCl (pH 7.4) lysis buffer containing 150 mM NaCl, 1 mM EDTA, 1 mM sodium orthovanadate, 20 mM sodium fluoride, 12 mM β-glycerophosphate, 10% glycerol, 1% Triton X-100 and protease inhibitor, separated by loading on 10% SDS-PAGE, and then transferred to polyvinylidene difluoride (PVDF) membrane (Millipore). Then, immunoblotting was performed using antibodies specific total MAPKs and phosphorylated MAPKs.

[2] = test system: HeLa cells and RAW 264.7 cells; test: Cell viability with GST-GRS fragments (MTT assay); settings: GST-GRS fragments added to HeLa and RAW 264.7 cells; FIG. 15
Experimental: In order to investigate the domain of the GRS protein related to cytokine activity, four GRS fragments of SEQ ID NOs. 3 to 6 (FIGS. 13 and 14) were prepared and they were expressed with the GST fusion protein. […] Then, cell viability was examined.

[3] = test system: HeLa, A549, HCT+/− and H460 cancer cells; test: Anticancer activity by MTT assay, cancer cells; settings: His-GRS protein 50, 100 or 150 nM, 24 hours, FIG. 6
Experimental: (§1) HeLa, A549, HCT+/− and H460 cancer cells, H293 kidney cells, SH-SY5Y neural cells, human skin fibroblast HSF cells, and macrophage RAW cells were placed on a 96-well plate, cultured for 18 hours, washed with serum-starved medium, treated with His-GRS protein (0, 50, 100 or 150 nM), heated His-GRS protein (150 nM) or 2 μg/mL Adriamycin in serum-starved medium (100 μL), cultured for 24 hours, treated with 5 mg/mL MTT (10 μL per each well), and then cultured for 2 hours. After decanting the supernatant using a syringe and treating with DMSO (100 μL per each well), the cells were cultured for 10 minutes and absorbance was measured at 570 nm using an ELISA reader.

[4] = test system: HeLa and HCT+/− cancer cells, normal 293 cells and macrophage RAW cells; test: Attachment of biotinylated GRS protein to cells (Western blotting with streptavidin-HRP); settings: 0, 1, 2, 5 or 10 μg biotinylated GRS protein; FIG. 4
Experimental: HeLa and HCT+/− cancer cells, normal 293 cells and macrophage RAW cells were placed on a 35-mm dish, cultured for 18 hours, and then washed with serum-starved medium (1 mL). Then, after adding 0, 1, 2, 5 or 10 μg of biotinylated GRS protein, proteins were collected from the whole cell lysate in the same manner as in Example 1. Then, Western blotting was performed using streptavidin-HRP and anti-tubulin antibodies.

[5] = test system: H293 kidney cells, SH-SY5Y neural cells, macrophage RAW cells; test: Anticancer activity by MTT assay, kidney, neural and immune cells; settings: His-GRS protein 50, 100 or 150 nM, 24 hours; FIG. 6
Experimental: as §1

[6] = test system: p38 kinase in HCT+/− cancer cells; test: Apoptosis mechanism: p38/ERK Western blotting; settings: 100 nM GRS protein, 0-120 minutes; FIG. 8
Experimental: HCT+/− cancer cells were placed on a […]. 18 hours later, after washing with serum-starved medium, the cells were treated with 100 nM GRS protein or 2 μg/mL lipopolysaccharide (LPS) in serum-starved medium (1 mL). After culturing for 0, 10, 30, 60, 90 or 120 minutes, the cells were collected using a lifter. The cells were centrifuged at 3,000 rpm for 5 minutes and, after decanting the supernatant, adding lysis buffer (200 μL) containing 0.5% Triton X-100, 2 mM EDTA, 10% glycerol, 150 mM NaCl, 25 mM Tris-HCl (pH 7.4) and protease inhibitor, and mixing at 4° C. for 30 minutes, the mixture was centrifuged at a rate of 12,000 rpm at 4° C. for 15 minutes and the protein was quantitated by the Bradford method. The collected protein was separated by loading on 10% SDS-PAGE and Western blotting was carried out using anti-p-p38, anti-p38, anti-p-ERK, anti-ERK and anti-tubulin antibodies.

[7] = test system: caspase 3 in HCT+/− cancer cells; test: Caspase 3 assay (Western blotting); settings: His-GRS protein 50, 100 or 150 nM, 24 hours, FIG. 7
Experimental: HCT+/− cancer cells or macrophage RAW cells were placed on a 35-mm dish. 18 hours later, after washing with serum-starved medium, the cells were treated with His-GRS protein (0, 50 nM, 100 nM or 150 nM) or heated His-GRS protein (150 nM) in serum-starved medium (1 mL). After culturing for 24 hours, the cells were collected using a lifter. The cells were centrifuged at 3000 rpm for 5 minutes and, after decanting the supernatant, adding lysis buffer (200 μL) containing 0.5% Triton X-100, 2 mM EDTA, 10% glycerol, 150 mM NaCl, 25 mM Tris-HCl (pH 7.4) and protease inhibitor, and mixing at 4° C. for 30 minutes, the mixture was centrifuged at a rate of 12,000 rpm at 4° C. for 15 minutes and the protein was quantitated by the Bradford method. The collected protein was separated by loading on 15% SDS-PAGE and Western blotting was carried out using anti-caspase 3 and anti-tubulin antibodies.

[8] = test system: BV2 and SH-SY5Y neural cells, macrophage RAW cells; test: Anticancer activity by FACS (sub-G1 dead cells), neural and immune cells; settings: GRS protein 100 nM; FIG. 5
Experimental: (§2) HeLa, A549, HCT+/− and HCT+/+ cancer cells, BV2 and SH-SY5Y neural cells, human skin fibroblast HSF cells, and macrophage RAW cells were placed on a 35-mm dish, and cultured for 18 hours. The cell culture was washed with serum-starved medium (1 mL), treated with GRS protein (0 or 100 nM), heated GRS protein (100 nM) or 1 μg/mL Adriamycin, and further treated with trypsin EDTA. The cells were isolated and centrifuged at a rate of 500 g for 10 minutes. After decanting the supernatant, the cells were resuspended in cold PBS (0.3 mL). After adding cold 100% EtOH (0.7 mL) and mixing for 5 seconds, the mixture was incubated at −20° C. overnight. The cell culture was centrifuged at a rate of 500 g at 4° C. for 10 minutes. After decanting the supernatant, adding cold PBS (1 mL) and mixing for 5 seconds, the mixture was centrifuged again at a rate of 500 g at 4° C. for 10 minutes. After decanting the supernatant, the cells were resuspended in P.I solution (500 μL) and incubated at room temperature for 20 minutes. Then, the number of dead cells was counted by FACS by measuring the quantity of DNA fragments resulting from apoptosis. The result is shown in FIG. 5 (The cells in sub-G1 phases were considered as dead cells).

[9] = test system: Bax, Bcl-2 and cytochrome C in HeLa cells; test: Intracellular level of Bax, Bcl-2 and cytochrome C (Western blotting); settings: 150 nM GRS
Experimental: Also, in order to investigate whether the GRS-induced apoptosis is related with mitochondria, the intracellular level of Bax, Bcl-2 and cytochrome C was examined. First, HeLa cells were cultured with 150 nM GRS for a predetermined time. The cells were then collected, resuspended in 20 mM HEPES (pH 7.5) storage buffer containing 10 mM KCl, 1.5 mM MgCl2, 0.5 mM EDTA, 1 mM DTT and protease inhibitor (Calbiochem), allowed to stand on ice for 5 minutes, and then homogenized for 6 cycles. Then, after centrifuging at 10,000 g for 10 minutes, protein was separated from the supernatant using 12% SDS-PAGE and transferred to PVDF membrane. Then, Western blotting was performed using cytochrome C or anti-tubulin antibody. […] To be concluded, GRS has pro-apoptotic activity in the HeLa cells.

[10] = test system: HeLa, A549, HCT+/− and HCT+/+ cancer cells; test: Anticancer activity by FACS (sub-G1 dead cells), cancer cells; settings: GRS protein 100 nM, FIG. 5
Experimental: as §2

[11] = GRS protein 150 nM, 10-120 minutes, FIG. 9

TNF-α [reference compound]
phosphorylation of all the MAPKs ([1]; TNF-α 15 ng/mL, FIG. 10): increased in 30 minutes

B1: F4: 511st through 685th amino acids of the full-length GRS, including the C-terminal anticodon-binding domain (protein, listed as Homo sapiens)
chain: LYVEEVVPNVIEPSFGLGRIMYTVFEHTFHVREGDEQRTFFSFPAVVAPFKCSVLPLSQNQEFMPFVKELSEALTRHGVSHKVDDSSGSIGRRYARTDEIGVAFGVTIDFDTVNKTPHTATLRDRDSMRQIRAEISELPSIVQDLANGNITWADVEARYPLFEGQETGKKETIEE
modifications: DOMAIN (1)..(175) Fragment 4 (511-685aa)
pro-apoptotic cytokine activity (cell viability) [2]: exhibited pro-apoptotic cytokine activity

B2: GRS protein: glycyl-tRNA synthetase (GRS) protein, amino acid sequence of SEQ ID NO. 1 (protein, listed as Homo sapiens)
chain: MDGAGAEEVLAPLRLAVRQQGDLVRKLKEDKAPQVDVDKAVAELKARKRVLEAKELALQPKDDIVDRAKMEDTLKRRFFYDQAFAIYGGVSGLYDFGPVGCALKNNIIQTWRQHFIQEEQILEIDCTMLTPEPVLKTSGHVDKFADFMVKDVKNGECFRADHLLKAHLQKLMSDKKCSVEKKSEMESVLAQLDNYGQQELADLFVNYNVKSPITGNDLSPPVSFNLMFKTFIGPGGNMPGYLRPETAQGIFLNFKRLLEFNQGKLPFAAAQIGNSFRNEISPRSGLIRVREFTMAEIEHFVDPSEKDHPKFQNVADLHLYLYSAKAQVSGQSARKMRLGDAVEQGVINNTVLGYFIGRIYLYLTKVGISPDKLRFRQHMENEMAHYACDCWDAESKTSYGWIEIVGCADRSCYDLSCHARATKVPLVAEKPLKEPKTVNVVQFEPSKGAIGKAYKKDAKLVMEYLAICDECYITEIEMLLNEKGEFTIETEGKTFQLTKDMINVKRFQKTLYVEEVVPNVIEPSFGLGRIMYTVFEHTFHVREGDEQRTFFSFPAVVAPFKCSVLPLSQNQEFMPFVKELSEALTRHGVSHKVDDSSGSIGRRYARTDEIGVAFGVTIDFDTVNKTPHTATLRDRDSMRQIRAEISELPSIVQDLANGNITWADVEARYPLFEGQETGKKETIEE
modifications: His tag; PEPTIDE (1)..(685) full length of GRS
level of phosphorylated ERK [1, 11]: increased with time
level of phosphorylated p38 MAPK [1, 11]: increased with time
killing of cancer cells (cell viability by MTT assay) [3]: specifically killed
attachment of GRS protein to the surface of cells [4]: attached to the surface of other cells
effect on kidney, neural and immune cells (cell viability by MTT assay) [5]: little effect
effect on p38 kinase-related mechanism [6]: had an effect on the p38 kinase-related mechanism
caspase 3 in active form [7]: caspase 3 in active form was observed
effect on neural and immune cells (dead cells in sub-G1 counted by FACS) [8]: little effect
intracellular level of Bax ([9]; FIG. 11): did not affect
intracellular level of Bcl-2 ([9]; FIG. 11): reduction
secretion of cytochrome C ([9]; FIG. 12): increased
killing of cancer cells (dead cells in sub-G1 counted by FACS) [10]: specifically killed
